Legend:
Assay in all cases: two-hybrid
[1] = biological target: PwHAP5 N77, residues 1-77, fused in pGBKT7 (yeast two-hybrid bait) (Picea wilsonii)
[2] = biological target: PwHAP5 C130, residues 92-221, fused in pGBKT7 (yeast two-hybrid bait) (Picea wilsonii)
[3] = biological target: PwHAP5, full-length coding region, fused in pGBKT7 (yeast two-hybrid bait) (Picea wilsonii)

fold beta-galactosidase activity over the controls [1]: 20 fold
fold beta-galactosidase activity over the controls [2]: 20 fold
fold beta-galactosidase activity over the controls [3]: 20 fold
Substance: PwFKBP12 in pGADT7-Rec (yeast two-hybrid prey) (natural protein)
